According to article PMC10763354 (2024):

Target: Desulfovibrio vulgaris flagellin (Desulfovibrio vulgaris)
Assay: MST

B1: leucine-rich repeat containing 19 (LRRC19) protein (receptor)
chain: SKREVQCNFTEKNYTLIPADIKKDVTILDLSYNQITLNGTDTRVLQTYFLLTELYLIENKVTILHNNGFGNLSSLEILNICRNSIYVIQQGAFLGLNKLKQLYLCQNKIEQLNADVFVPLRSLKLLNLQGNLISYLDVPPLFHLELITLYGNLWNCSCSLFNLQNWLNTSNVTLENENITMCSYPNSLQSYNIKTVPHKAECHSKFPSSVTEDLYIHFQPISNSIFNSSSNNLTRNSEHEPLGKSW
modifications: NT647 fluorescence dye (in the MST experiments only)
  Kd: 1.05 µM
